Experimental findings from patent US20190367589A1 (CYTOMX THERAPEUTICS, published 2019) are described below.

Experiment [1] addresses T1, human Jagged 2-Fc (R&D Systems Cat #1726-JG-050) (human, UniProt Q9Y219 27-1080, limits assumed).
T1 construct: Bought reagent; also called hJag2; h Jagged 2; not shown: Fc part
The experiment is described as follows: BLI (Octet), Jagged-Fc on anti-human Fc tips, Fab in solution. On the procedure:
(§1) Off rates for individual Fabs were measured using an Octet (ForteBio, Menlo Park, Calif.). […] Following a wash, the loaded tips were exposed to 25 μM Fab until binding had reached equilibrium. The tips were then removed to a fresh solution with no Fab, and the rate of Fab dissociation was measured.

Experiment [2] deals with T2, murine Jagged 2-Fc (R&D Systems) (murine, UniProt Q9QYE5 24-1082, limits assumed).
T2 construct: Bought reagent, cited as ibid. although no catalogue number is printed anywhere; also called m Jagged 2; not shown: Fc part
T2 sequence (Q9QYE5 24-1082 limits assumed): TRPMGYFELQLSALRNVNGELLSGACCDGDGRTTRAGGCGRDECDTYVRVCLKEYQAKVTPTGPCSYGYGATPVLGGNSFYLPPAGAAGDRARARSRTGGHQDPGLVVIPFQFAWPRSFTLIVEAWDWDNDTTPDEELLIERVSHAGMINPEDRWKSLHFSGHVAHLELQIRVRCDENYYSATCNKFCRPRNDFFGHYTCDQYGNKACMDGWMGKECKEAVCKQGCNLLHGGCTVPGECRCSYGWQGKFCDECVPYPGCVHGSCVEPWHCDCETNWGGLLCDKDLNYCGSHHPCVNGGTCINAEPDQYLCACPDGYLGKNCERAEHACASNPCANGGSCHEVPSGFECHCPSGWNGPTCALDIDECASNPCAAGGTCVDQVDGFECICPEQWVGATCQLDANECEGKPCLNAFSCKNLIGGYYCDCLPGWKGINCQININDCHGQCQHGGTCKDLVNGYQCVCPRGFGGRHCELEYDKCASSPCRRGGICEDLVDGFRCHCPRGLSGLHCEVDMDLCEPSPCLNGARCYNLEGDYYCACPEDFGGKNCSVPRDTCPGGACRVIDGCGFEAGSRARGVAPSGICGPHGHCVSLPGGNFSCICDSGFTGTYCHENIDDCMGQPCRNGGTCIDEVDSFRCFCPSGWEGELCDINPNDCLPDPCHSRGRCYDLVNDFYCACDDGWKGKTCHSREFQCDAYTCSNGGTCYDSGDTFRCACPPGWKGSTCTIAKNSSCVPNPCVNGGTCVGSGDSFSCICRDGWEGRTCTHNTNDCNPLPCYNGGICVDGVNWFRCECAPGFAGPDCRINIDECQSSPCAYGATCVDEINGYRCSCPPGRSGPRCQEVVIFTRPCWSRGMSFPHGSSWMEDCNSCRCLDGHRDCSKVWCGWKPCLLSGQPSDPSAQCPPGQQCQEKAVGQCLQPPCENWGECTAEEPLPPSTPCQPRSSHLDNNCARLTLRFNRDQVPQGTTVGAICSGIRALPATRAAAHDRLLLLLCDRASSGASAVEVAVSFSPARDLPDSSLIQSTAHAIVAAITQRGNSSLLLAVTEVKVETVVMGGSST
The experiment is described as above. Here is the method:
as §1

In experiment [3] the target is T1, human Jagged 2-Fc (R&D Systems Cat …). The experiment is described as follows: drawn table 'Kd (nM)' of Fab; method not stated; the legend names the matured antibody as 4D11.
Experiment [4] has as its target T3, masking moiety JS5872.
T3 peptide: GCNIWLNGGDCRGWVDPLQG
The experiment is described as follows: FACS of cells displaying the masking peptide, labelled Fab 4D11, signal normalised to expression; Fab concentration not given.

For experiment [5], the target named is T4, masking moiety JS5877.
T4 peptide: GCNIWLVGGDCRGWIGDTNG
The experiment is described as above.

For experiment [6], the target named is T5, masking moiety JS5885.
T5 peptide: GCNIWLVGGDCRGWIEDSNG
Described as above.

Experiment [7] addresses T6, masking moiety JS5887.
T6 peptide: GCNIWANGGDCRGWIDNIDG
The description is as above.

Experiment [8] has as its target T7, JS5340.
T7 construct: also called masking moiety JS5340
T7 peptide displayed on cells: CNLWLHGGDCRGWQG
The experiment is described as follows: FACS of cells displaying the peptide, biotinylated anti-Jagged Fab at 1, 10 and 100 nM, streptavidin-PE, normalised to expression with yPet-MONA.

Experiment [9] concerns the target T8, JS5347.
T8 construct: also called masking moiety JS5347
T8 peptide displayed on cells: CNIWGPSVDCGALLG
Described as above.

The target in experiment [10] is T9, JS5358.
T9 construct: also called masking moiety JS5358
T9 peptide displayed on cells: CNIWVNGGDCRSFEG
The description is as above.

Experiment [11] deals with T10, masking moiety JS5342.
T10 peptide: CNIWLVGGDCRGWQG
The description is as above.

In experiment [12] the target is T11, human Jagged 1-Fc (extracellular domain of human Jagged 1 fused to the Fc portion of human IgG1); R&D Systems … (human, UniProt P78504 34-1067).
T11 construct: extracellular domain; Bought reagent; also called hJag1; h Jagged 1; not shown: Fc portion of human IgG1
Kind of experiment: phage ELISA, ligand coated. From the text: (§2) Jagged ligands were adsorbed to the wells of a 96-well ELISA plate, each ligand on a separate plate. Phage were applied to correlative wells on each plate and allowed to bind. Bound phage were visualized with an anti-M13-HRP conjugate and developed with the chromogenic substrate TMB. Also shown are the SEQ ID NOs for the each of these isolates.

Experiment [13] concerns the target T1, human Jagged 2-Fc (R&D Systems Cat …). The experiment is described as follows: phage ELISA, ligand coated.
Excerpt: as §2

For experiment [14], the target named is T11, human Jagged 1-Fc (extracellular domain …). The experiment is described as follows: BLI (Octet), Jagged-Fc on anti-human Fc tips, Fab in solution. Here is the method: as §1
A general note: BLI is a label-free optical method that tracks binding on a fibre tip over time.

Experiment [15] addresses T12, rat Jagged 1-Fc (R&D Systems Cat #599-JG-100) (rat, UniProt Q63722 34-1067, limits assumed).
T12 construct: Bought reagent; also called rJag1; rJAG1; not shown: Fc part
Kind of experiment: phage ELISA, ligand coated.
Excerpt: as §2
Background: An ELISA detects its analyte on a solid surface through an enzyme-linked reagent.

Experiment [16] addresses T11, human Jagged 1-Fc (extracellular domain …). Kind of experiment: ELISA, ligand-Fc coated, anti-human IgG Fab-specific HRP. Here is the method: (§3) Bound antibody was visualized with an anti-human IgG-HRP conjugate, Fab specific, (Sigma, St Louis, Mo.; Cat # A0293-1ML) and developed with the chromogenic substrate TMB.
Experiment [17] deals with T1, human Jagged 2-Fc (R&D Systems Cat …). The description is as above. Here is the method: as §3

Changes are numbered by the printed parent chain. Bounds are passed on as bounds.

T1 sequence (Q9Y219 27-1080 limits assumed): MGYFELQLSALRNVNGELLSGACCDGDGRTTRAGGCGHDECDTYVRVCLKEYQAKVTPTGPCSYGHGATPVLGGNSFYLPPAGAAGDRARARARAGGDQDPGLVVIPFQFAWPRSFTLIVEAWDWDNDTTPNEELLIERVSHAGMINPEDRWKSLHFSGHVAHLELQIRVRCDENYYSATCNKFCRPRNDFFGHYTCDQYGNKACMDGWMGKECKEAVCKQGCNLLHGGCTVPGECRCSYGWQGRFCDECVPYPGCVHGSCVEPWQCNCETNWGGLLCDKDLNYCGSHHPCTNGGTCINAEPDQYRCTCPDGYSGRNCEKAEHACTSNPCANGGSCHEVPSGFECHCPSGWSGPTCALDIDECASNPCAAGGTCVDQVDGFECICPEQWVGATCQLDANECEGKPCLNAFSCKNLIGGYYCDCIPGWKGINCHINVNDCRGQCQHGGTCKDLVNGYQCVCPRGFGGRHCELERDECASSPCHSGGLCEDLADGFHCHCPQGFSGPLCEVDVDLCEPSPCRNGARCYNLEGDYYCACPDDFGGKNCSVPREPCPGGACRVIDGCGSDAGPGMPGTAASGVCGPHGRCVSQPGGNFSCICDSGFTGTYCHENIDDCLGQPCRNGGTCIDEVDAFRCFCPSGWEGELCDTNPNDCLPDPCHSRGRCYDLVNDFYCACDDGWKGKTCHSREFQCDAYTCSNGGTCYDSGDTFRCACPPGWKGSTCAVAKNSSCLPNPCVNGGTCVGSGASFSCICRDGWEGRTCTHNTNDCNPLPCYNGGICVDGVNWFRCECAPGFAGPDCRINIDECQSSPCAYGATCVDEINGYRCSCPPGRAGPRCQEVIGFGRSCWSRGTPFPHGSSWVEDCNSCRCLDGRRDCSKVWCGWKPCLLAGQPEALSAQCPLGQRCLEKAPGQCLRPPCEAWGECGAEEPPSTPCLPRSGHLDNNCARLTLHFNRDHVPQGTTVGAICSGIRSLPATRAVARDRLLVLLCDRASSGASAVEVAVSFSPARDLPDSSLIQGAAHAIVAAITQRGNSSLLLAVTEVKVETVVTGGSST

B1: 4D11 Fab (Fab, V domains shown)
VH: EVQLLESGGGLVQPGGSLRLSCAASGFTFSSYAMSWVRQAPGKGLEWVSSIDPEGRQTYYADSVKGRFTISRDNSKNTLYLQMNSLRAEDTAVYYCAKDIGGRSAFDYWGQGTLVTVSS
VL: DIQMTQSPSSLSASVGDRVTITCRASQSISSYLNWYQQKPGKAPKLLIYAASSLQSGVPSRFSGSGSGTDFTLTISSLQPEDFATYYCQQTVVAPPLFGQGTKVEIKR
notes: C-terminally His-tagged Fab from the periplasm of E. coli; also called anti-Jagged Fab 4D11; Fab 4D11
Consider B1, for which the koff came to 0.00045 s⁻¹ in experiment [1] and 0.00042 s⁻¹ in experiment [2]. The molecule also showed a Kd in [3] of less than 1 nM. In addition, the binding result in experiment [4], in experiment [5], in experiment [6], in experiment [7], in experiment [8] and in experiment [9] was “binds” each time. The binding result in experiment [10] and in [11] was “binds” in each case.

B2: 346.24 (Fab, V domains shown)
VH: EVQLLESGGGLVQPGGSLRLSCAASGFTFSSYAMSWVRQAPGKGLEWVSSIEEMGWQTLYADSVKGRFTISRDNSKNTLYLQMNSLRAEDTAVYYCAKSAAAFDYWGQGTLVTVSS
VL: B1 VL with T91S, P96L, L97T
notes: also called Lc24/Hc24
Consider B2, for which the binding result in experiment [12] and in [13] was “binds” throughout.

B3: 4B2 Fab (Fab, V domains shown)
VH: B1 VH with D52E, P53Q, E54M, R56W
VL: B1 VL with V92L, V93D, L97Q
notes: C-terminally His-tagged Fab from the periplasm of E. coli
Turning to B3, the koff in [14] is 0.0005 s⁻¹; in experiment [1], 0.0065 s⁻¹; in experiment [2], 0.0011 s⁻¹.

B4: 4E11 Fab (Fab, V domains shown)
VH: B1 VH with D52E, E54M, R56Q, Q57L, Y59E
VL: B1 VL with T91A, V92L, V93D, P96L, L97M
notes: as for B3
Take B4: the koff in experiment [14] was found to be 0.0014 s⁻¹; in experiment [1], 0.00057 s⁻¹; in experiment [2], 2.5e-05 s⁻¹.

B5: 346.8 (Fab, V domains shown)
VH: B1 VH with D52E, P53Q, E54M, R56W, D99H, G102R, R103T, S104N, A105P
VL: B1 VL with T91S, P96L, L97T
notes: also called Lc8/Hc8
Take B5: the binding result in experiment [12] and in [15] was “binds” each time.

B6: anti-Jagged 13 IgG (antibody, V domains shown)
VH: B2 VH with E53T, M54Q, W56P, Q57T, S99T, A100S, A101S
VL: DIQMTQSPSSLSASVGDRVTITCRASQSISSYLNWYQQKPGKAPKLLIYASSLQSGVPSRFSGSGSGTDFTLTIGSLQPEDFATYYCQQNVATPLTFGQGTKVEIKR
notes: Fully human IgG made from the variable domains of ScFv Jagged 13; also called anti-Jag 13
Regarding B6, the “affinity (ELISA)” value in [16] and in experiment [17] was more than 30 nM throughout.

B7: anti-Jagged 13 Fab (Fab, V domains shown)
VH: B2 VH with E53T, M54Q, W56P, Q57T, S99T, A100S, A101S
VL: B6 VL
notes: Fab expressed in E. coli; also called Jag13
For B7, the results for the koff in experiment [14], in experiment [1] and in [2] were 0.022 s⁻¹, 0.001 s⁻¹ and 0.0028 s⁻¹, respectively.

B8: anti-Jagged 32 IgG (antibody, V domains shown)
VH: B2 VH with E53Q, L59Y
VL: B6 VL with S51A, G75S, N90T, A92V, T93A
notes: Fully human IgG made from the variable domains of ScFv Jagged 32; also called anti-Jag 32; antibody 32/32
Take B8: the “affinity (ELISA)” value in [16] was more than 30 nM.

By koff is commonly meant a measure of how fast the partners let go of each other. Low values mean a long-lived complex, high ones a short-lived complex. By Kd is commonly meant the concentration at which binding is half-saturated. Low readings indicate higher affinity, high ones lower affinity.
